This passage reports binding result and Kd results from paper PMC7641730, “Structural basis of DNA replication origin recognition by human Orc6 protein binding with DNA”.

For series [1], the target named is T1, HsOrc6-M (Homo sapiens, UniProt Q9Y5N6 95-187).
T1 sequence: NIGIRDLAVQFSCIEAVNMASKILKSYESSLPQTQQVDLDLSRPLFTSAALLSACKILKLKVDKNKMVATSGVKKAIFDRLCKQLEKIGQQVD
The series can be described thus: NMR (2D NOESY of DNA); smaller shifts than with DBD; NMR: 50 mM sodium phosphate pH 6.5, 100 mM NaCl, 2 mM DTT, 298 K; ITC: 50 mM sodium phosphate pH 6.5, 100 mM NaCl, 25 C; EMSA: 25 mM Tris pH 8.0, 60 mM KCl, 5 mM MgCl2, 0.4 mM EDTA, 0.4 mM EGTA, 0.1% NP-40, 10% glycerol, 0.12 mg/ml BSA, room temperature 30 min. Conditions: protein: recombinant; tags: none (N-terminal His-tag cleaved); blunt. In general terms: In EMSA bound probe runs differently from free probe, usually more slowly.

Series [2] has as its target T2, HsOrc6 full length (Homo sapiens, UniProt Q9Y5N6 1-252).
T2 sequence: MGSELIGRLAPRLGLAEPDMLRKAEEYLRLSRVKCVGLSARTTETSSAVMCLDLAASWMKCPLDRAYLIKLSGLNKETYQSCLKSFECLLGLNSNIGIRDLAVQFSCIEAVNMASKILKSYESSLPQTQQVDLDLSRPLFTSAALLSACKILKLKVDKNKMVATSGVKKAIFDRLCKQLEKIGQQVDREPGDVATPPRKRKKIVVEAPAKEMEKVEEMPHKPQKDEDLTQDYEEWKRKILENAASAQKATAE
Briefly: NMR titration (1H,15N-HSQC); range over residues; NMR: 50 mM sodium phosphate pH 6.5, 100 mM NaCl, 2 mM DTT, 298 K; ITC: 50 mM sodium phosphate pH 6.5, 100 mM NaCl, 25 C; EMSA: 25 mM Tris pH 8.0, 60 mM KCl, 5 mM MgCl2, 0.4 mM EDTA, 0.4 mM EGTA, 0.1% NP-40, 10% glycerol, 0.12 mg/ml BSA, room temperature 30 min. Conditions: protein: recombinant; tags: none (N-terminal His-tag cleaved with 3C); blunt.

For series [3], the target named is T3, HsOrc6-DBD (Homo sapiens, UniProt Q9Y5N6 95-207).
T3 sequence: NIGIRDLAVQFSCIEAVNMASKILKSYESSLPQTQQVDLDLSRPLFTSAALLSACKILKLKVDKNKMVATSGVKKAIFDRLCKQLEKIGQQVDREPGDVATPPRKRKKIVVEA
The series can be described thus: NMR titration (1H,15N-HSQC); range over residues: K169 47.1±1.4, A170 57.7±1.1, R200 9.92±2.91, I203 11.3±1.5; NMR: 50 mM sodium phosphate pH 6.5, 100 mM NaCl, 2 mM DTT, 298 K; ITC: 50 mM sodium phosphate pH 6.5, 100 mM NaCl, 25 C; EMSA: 25 mM Tris pH 8.0, 60 mM KCl, 5 mM MgCl2, 0.4 mM EDTA, 0.4 mM EGTA, 0.1% NP-40, 10% glycerol, 0.12 mg/ml BSA, room temperature 30 min. The following applies: protein: recombinant; tags: none (N-terminal His-tag cleaved); blunt.

B1: 10-bp AT-rich DNA (dsDNA)
DNA 1: TTTAAAAAGT
DNA 2: ACTTTTTAAA
Consider B1, for which, in series [1], the binding result is “binds”.

B2: 17-bp AT-rich DNA (dsDNA)
DNA 1: GGCCCTTTTTTTTCTAG
DNA 2: CTAGAAAAAAAAGGGCC
A word on the Kd: it is the constant that tells how readily two partners part at equilibrium. With B2, the Kd stood at 44.5 µM in series [2] and 23.9 µM in series [3].
